The source of these data is a protein production outcome set (Wang et al. 2014).
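Also: failed if final PepcDB status was selected cloned or expressed and not failed if soluble or beyond.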

This data set can be described thus: label from the status in PepcDB records.
Regarding “KERERLEEKLEDANERIAELVKLEERQRIARDLHDTLGQKLSLIGLKSDLARKLIYKDPEQAARELKSVQQTARTSLNEVRKIVSSMKGIRLKDELINIKQILEAADIMFIYEEEKWPENISLLNENILSMCLKEAVTNVVKHSQAKTCRVDIQQLWKEVVITVSDDGTFKGEENSFSKGHGLLGMRERLEFANGSLHIDTENGTKLTMAIPNNSK”, the protein production entry was “not failed”.

Consider “KIMIAALDYDPGDGQMGGQGKGRLALRAGDVVMVYGPMDDQGFYYGELGGHRGLVPAHLLDHMSLHGH”, for which the protein production result is “not failed”.

Consider “KMMVLYNETSGSSESKEIAERFKKAAEARGEAVILQPSNPDIDPEEMRKNAKENQVGVLVVIGGDGTIHHAVQNFKDTIRDYQIGIIPGGTVNNFARVLSIPLKEEDAFETILAGQTTPVDFGMVNQD”, for which the protein production result is listed as “not failed”.

Turning to “KNRLGTKALNFTYTLDSGVKGTLYQFPAEYTLLFINNPGCHACAEMIEGLKASPVINGFTAAKKLKVLSIYPDEELDEWKKHRNDFAKEWTNGYDKELVIKNKNLYDLRAIPTLYLLDKNKTVLLKDATLQKVEQYLAE”, the protein production entry was “not failed”. Regarding “KNVNNAEEYWDVIDLRVYPGKNGYFELYDDDGITYEYEKGKYYIIPITWDEDKQELTIGKKRGELEMSKKIIKIIWVEKGKGIEHTKPDVEIEYNGKETITVKRG”, the protein production result is “failed”. Regarding “KPKDIKYVVEESKFKDLREILEFMLKDAVQKLDMFLDMLNYSKPKVDVGDEVIEIKKDNVIEALKLFKDEYEVSKKHIPVPVYTYLIKRNILFLNPIEGILKPQSYLVWNAIKRLL”, the protein production result is “failed”. In the case of “KPSQEGGKGGSEKPKRPVSAMFIFSEEKRRQLQEERPELSESELTRLLARMWNDLSEKKKAKYKAREAALKAQSERK” it was “not failed”; in that of “KREHFRDDYLYRFYQYGDTHSKIPSNLYKVLARKLDMISASENINDLRSPPANHLELLEPKENKIYSIRVNKQYCLIFKYENNEVNNLYLDPH”, “failed”.

On to “KSHSRTLTPTPDGKTMLRPVLRLTSAMTREVATDHKAFYVLFTWDQEAQIYELVAQTVSERKNWCALITETAGSLKV”, for which the protein production result is “failed”. Under “KSNEIVELSVQKWINELRDANNKLQQEVSELKKKEVNLESSLSLLSSTLESTAIGIVAINFEGDILNYNQKFAEMWKLPQQLILSKKCPRCKAFFEGQMKDPETFNRLIWAVSSTSNIESYDVLELKDGRVFAHYSQPQWLGQ” stands “failed”.

With “KSTVEKSTVGQKVAIVREDTGTIAELAEKALGNMVDIVYAGSDLKEAEEAVKKEKAPAIIVIPKGFSQSLESGEKARLEIVWYLRGTGLSEAVSTGTISSLIESLKVQLASFLLNDPKKAQLLFDPLEIVQHTYLRGSLFKNHSPEAIMNVFYSQN”, the protein production entry is given as “not failed”. Consider “KTGQLLPKSPAARYEAIQWLMFQMGGVGPMFGQLGFFHKFAGKDYEDKRPRDRYVAESRRLLQVLEGRMAGRAWIMGDEYTIADIAIWPWVRNLVGFYGAGELVGFDDFPNIQRVVQAFAERPAVARGLAIPARD”, for which the protein production result was “failed”.

Regarding “KTIFVIVPTNEEQVAFLEALAKQDELNFDWQNPPTEPGQPVVILIPSDMVEWFLEMLKAKGIPFTVYVEEGGSENLYFQ”, the protein production result was “not failed”.

For “KVGLIIISHGRIATETVNVVKELLGVKFPVAIDMPLDEKPINIYNKAVELSKIIDQGKGILFLVDIGSLTNIGQIVNKRTNISTKTIDRVDLLMALEATRKVSMGEEELDEIFFSLLKDRMGYNYELEKHIDKS”, the protein production entry is “failed”. For “KYYWNNVNYDPATLFSASCLLFYVLDAIIFEHHLSSSFELQHEGYGCLLLLRYAATPYLLTAVTKYFYEQRVPISCWYAPLAVAALLSLGLLVKRFSCAYKYKYRLNSQSPIFANIETIHTYQGSRLLLSGMWGWVRQPNYLGDIVALLALAAPMALRPAWPPVLGLSLIILLLLHRATRANARNQARYHSSWQRYSTQVRSYILPRVY”, the protein production entry is given as “failed”.

Take “LAAMSIDLGSQFIKIGLVKPGVPMDIVLNKESRRKTPNVISFKNDERFFAEAAAAMSSSHPQSSYNFLLSMIARKEGDDAFVTFQKTFPFTAFEFDEVRKTVVFPYKEEKYNVETLLAMILWNAKKVTEAYADQTVKDVVITVPIFLNQAERRAIASAAEIAGLNLLQLLNDGSAAALNYGVFRRKEITEKPTHMLIYDMGAVKTTATIVQYVLESTRKDGKDKQPTLRTVGVGFDKTLGGLEITNRLRDHLEKVFRDTVKTSKDISTNARAIGKLHKEAERVKQVLSANKDTYAQVESLFEEQNFRAKVTREELEKMIEDLEPRIAAPILDAIGMAQISTNDIDLVVLMGAGTRVPKVKEILKTILKDKEISNFLNTDEAIAMGAVYQAAHLSKSFKVLPFNVHEKILYPVFVNFLTKTEEGTMKPIRKSLFGENYPVPNRVMHFSSYSDDFKIDIQDADKNPLSTVEISGVKDAIEKEVTDE”: the protein production entry was “failed”.

Consider “LADYSTEELEKIADKFRSDTSGIRGTKDFTSPEELYDELKKEIKKYHPSDDTSLVDKAYRVAYDAHKGQARKSGEPYIIHPLCVAIILAELELDKETIAAGLLHDVLEDTIMTMDEMRAEFGDDVAHLVDGVTKLKHLHLTDSTKDPKDKNADRLEMQAENLRKMFLAMAKDIRVILIKLADRLHNMRTLKYQSKEAQQRIARETQDIYCPIAQRLGISKIKIELEDLCMKYLYPDAYYDLVEKVALRKTERDTYIQGLVNDVKKYVSDAGIKAEIYGRAKHFFSIYKKMVNQDKTIDQIYDLFAIRILVDTIPDCYAVLGIIHEKYKPIPGRFKDYIAMPKQNMYQSLHTTLIGPSGQPFEIQIRTYEMHRTAEYGIAAHWKYKETNNGNATTTTVTEEEKLSWLRQILEWQQDMSDNKEFMTLLKSDLNLFSDNVFAFTPSGDVKNLPKGSTPIDFAYSIHSAVGNKMVGAKVNGKLVPIDYVIKNGDQIEIITSQNSKGPSRDWLKVVKSTQAKNKINQWFRSELKEENIQHGKDLIAAYAKAKGINFAEINKPEYQEKIRRKYGFHDWNSCLATVGHGGLKESQIVNRMYDEYKKDHVVPVTDADVLGSIAEKQQAAAGTQPEHKSKSGIVVHGLYDVAVHFSKCCNPVPGDEIVGFVTRGRGISIHRTDCVNIINLSKIEKDRLIEAEWQDTALMDNGAEYQADLKIFCHDRPGLLVDITKIFTEKEINISGIQSKTSKQGIATIEVFFNIKGRDQIKVLVEKLRQIESVIDVERTTG”, for which the protein production entry is listed as “failed”. Turning to “LANKQIESRIIQFDVEFPSDEVAKQLSIEKTVPVYHIIRLRKVEGEPYVIEETYMPSNVISELNEDVLHGSVYRHITETLKLTIAGSHRKIRADKSSALDREYLECAPDDPVLEVEQVAFLNTGEPFEYSFARHRYDKFVFSSVHIRK”, the protein production entry was “failed”.

As to “LAQEKNYDLPEGVMVYVIEGPFFFGAVETFQSALANTHTDPKVLIIRMRWVPFIDVTGLQAMEEIILNLQKRGVRVLLSEANPLVDAKLRKMGIVQLIGEQNYYKEFSQALDVCRINDSDRKSQPPFEVAKPLASVTQ”, the protein production entry is “not failed”. For the sequence “LDTIPTTYVDAGSVFGKTGDAEKVLNGGWNYLMETFNSYANPGYGAMLRANDAMGSDVVLNSKYGFRTHNEFSAIYGKGGTNTLSWLLAYRVINDCNGVLDNIDAAEGTQADRNRIKGQALALRGFLYLHLASCYSFAIDKDPDAVCAPIYTQSTDETIAAEGKPASSVSEVYAQSINDLEEALELIPETYVRDAKHKIDNEVVLGILSRACLYARQWEKAKTYSDKLLAKDNYLMTESEYKAGFNSVDNKEWIWGHAQTNDQSNASYQFHYLDTTTKGSYYYSFNVDPYFRDLFEDGDYRKEMLFWATDPGADVESAAYVWMRNSKFRFRDIENQLGDIVLMRVAEIYLINAEAKAHLNDPDAINKLNDLKTARGAKTIHTNLSQQDLLETIWLERRKELWGEGFSLIDIIRNQQTVVRNAYPEGPIDYIYTDENGQTHTLKKKTQGHRFFNFPDKSAFCPNSKYYLYRITDSEELANKNLYKDHPKLSIYTK”, the protein production result is given as “not failed”. Consider “LDYQRLYGTRCFSCDQFIEGEVVSALGKTYHPDCFVCAVCRLPFPPGDRVTFNGKECMCQKCSLPVSV”, for which the protein production result is “not failed”.

For “LEAVAPERPRCAYCSAEASKRCSRCQNEWYCCRECQVKHWEKHGKTC”, the protein production entry is “not failed”. As for “LECDGKVNICCKKQFFVSFKDIGWNDWIIAPSGYHANYCEGECPSHIAGTSGSSLSFHSTVINHYRMRGHSPFANLKSCCVPTKLRPMSMLYYDDGQNIIKKDIQNMIVEECGCS”, the protein production entry is listed as “not failed”. As to “LETSWIKPGQASWEWWNDAAPYGPDVNFVSGYNLETYKYYIDFASKYGIRYIIMDEGWAKSTRDPYTPNAKVDVHELIRYAEKKNVGIVLWLTWLTVENNMDLFKTFSEWGVKGVKIDFMDRSDQWMMNFYERVAAEAAKYKLFVDFHGSVSPKGLEYKYPNVLSYEGVRGMEQMGGATPDNSIFMPFMRNAVGAMDYTPGAM”, the protein production entry is “failed”.

Turning to “LETYNTCDTPPPLNNLTPYRDDGKEALKFYTDPSYFFDLWKEKMLQDTKDIMKEKRKHRKEKKDNPNRGNVNPRKIKTRKEEWEKMKMGQEF”, the protein production entry was “failed”.

Take “LFGVTSELSKDGRERIYRVEGQLFYASVEDFMAAFDFREALDRVVIDVSRAHIWDISSVQALDMAVLKFRREGAEVRIVGMNEASETMVDRLAIHD”: the protein production result is “not failed”.

In the case of “LGEICKAVLVDPSSNLTLDHWADKCGLSRRTLTRLFRRETGQSFSGWRQRVRLLEALARLGAGETVTGVALDVGYDSPSAFAAMFKRELGAAPRHYLR”, the protein production entry was “failed”.

“LGKILQGVVVVLSGFQNPFRSELRDKALELGAKYRPDWTRDSTHLICAFANTPKYSQVLGLGGRIVRKEWVLDCH”: the protein production result is given as “failed”. Under “LGNEDFNSVIQQMAQGRQIEYIDIERPSTGGLGFSVVALRSQNLGKVDIFVKDVQPGSVADRDQRLKENDQILAINHTPLDQNISHQQAIALLQQTTGSLRLIVAREPVHTKSST” stands “not failed”.

On to “LGVVPEVRDWFTLGDHRFLVMDFLEGRPLNSFFAERHPLLTPDPEPDAVAAYTAWALRIHRAVEQAVHAVHARGIVFNDLHVFNIMVAPDEESVSLLDFEAAAPIEEN”, for which the protein production entry is given as “failed”. Under “LHDTDQQGMFERGSAIVEPRFRSLLQQIGSMLGEIDNRLLVVGHTDAAQYHRAGGFAAMSNWSLSSNRAMAARLHMMQGGLAADSVLQVVGMAERAPLDKQHPLGAVNRRIELLVLTSGQAQA” stands “failed”; under “LHYVHVGNKKSPNTLLFVHGSGCNLKIFGELEKYLEDYNCILLDLKGHGESKGQCPSTVYGYIDNVANFITNSEVTKHQKNITLIGYSMGGAIVLGVALKKLPNVRKVVSLSGGARFDKLDKDFMEKIYHNQLDNNYLLECIGGIDNPLSEKYFETLEKDPDIMINDLIACKLIDLVDNLKNIDIPVKAIVAKDELLTLVEYSEIIKKEVENSELKIFETGKHFLLVVNAKGVAEEIKNFI”, “failed”; under “LKLTKIIVSEAGASVYSASEIAANEFPDLDVSLRGAVSIARRLQDPLAELVKIEAKSIGVGQYQHDVNQAKLARCLDGVVEDCVNAVGVDINTASAALLSHISGLNDTLAKNIVQFRDEHGAFTNRNQLKNIHRMGEKAFQQAAGFLRIMNGDNALDASCVHPEAYPLVEKIISDKKVSIKEIIGNRELLQSINAEQYVDENFG”, “failed”. As to “LLEIKRKGAKRGSQHYSDRTCARCQESLGRLSPKTNTCRGCNHLVCRDCRIQESNGTWRCKVC”, the protein production entry is given as “not failed”. Under “LLNMKRAETGKALSPLQIQELQYMLEDFSPELIHEALKEAVSQGKANFAYIKVILNRWKQDNLLTVELVRN” stands “failed”.
